Measured values reported in US20240376227A1 (published 2024).

Legend:
[1] = target: T1, endogenous CK2α protein (UniProt P68400 1-391); test: Western blotting after immunoprecipitation, MCF-7 and Flag-CK2α-expressing HEK293 cells
T1 construct: Native protein in cell lysates, chromatin fractions or fixed tissue sections of human origin; also called cellular endogenous CK2α protein; CK2α protein localized to the nucleolus
Protocol: A lysate was prepared from a breast cancer cell line MCF-7 (JCRB cell bank, #JCRB0134) and Flag-CK2α protein-expressing HEK293 cells. The MCF-7 cell line or Flag-CK2α-protein-expressing HEK293 cells were cultured, and washed with PBS, and then collected from the plate. A soluble fraction was partially purified from the cell lysate in accordance with common methods, and the anti-CK2α antibody (1 μg of six antibodies of the present invention or the control antibody) was added. Then, mixing was performed mildly at 4° C. for two hours, and then, Protein G-agarose beads were added, and a CK2α immune complex was formed. Then, the immunoprecipitates obtained by centrifugation were treated with SDS, and then electrophoresed. In Western blotting, the antibody of the present invention or the control antibody was used at 0.1 μg/mL.
The Western blotting performed with the control antibody detected, in the MCF-7 cell line, a band of the endogenous CK2α and in addition, a nonspecific band equal to or stronger than the band, and also detected, in the Flag-CK2α protein-expressing HEK293 cells, bands of the endogenous CK2α and Flag-CK2α, and in addition, a nonspecific band equal to or stronger than the bands.

[2] = target: T2, recombinant human CK2α protein (human, UniProt P68400 1-391); test: Western blotting on 0.05, 0.1 or 0.2 µg purified recombinant protein, antibody at 0.1 µg/mL
T2 construct: also called recombinant CK2α protein; Casein kinase 2 alpha 1
T2 sequence (P68400 whole entry): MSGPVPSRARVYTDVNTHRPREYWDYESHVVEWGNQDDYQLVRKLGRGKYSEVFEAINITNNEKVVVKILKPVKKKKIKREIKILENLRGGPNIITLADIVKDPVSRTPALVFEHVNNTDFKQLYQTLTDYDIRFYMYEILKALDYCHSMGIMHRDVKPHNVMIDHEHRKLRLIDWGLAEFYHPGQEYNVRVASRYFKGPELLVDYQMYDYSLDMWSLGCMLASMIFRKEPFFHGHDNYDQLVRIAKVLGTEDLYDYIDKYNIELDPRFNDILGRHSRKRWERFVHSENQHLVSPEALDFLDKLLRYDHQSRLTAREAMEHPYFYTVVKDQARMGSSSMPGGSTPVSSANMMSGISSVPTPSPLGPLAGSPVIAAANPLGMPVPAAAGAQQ
Protocol: Using mAb (6A3), mAb (10B2), mAb (15C1), mAb (16C2), mAb (19C2), and mAb (21B1) of the present invention, a purified product of recombinant CK2α protein was detected by Western blotting. The recombinant CK2α protein obtained by purifying the human-derived CK2α protein expressed by introducing the pGEX2T-CK2α gene in E. coli was used. The recombinant CK2α protein in an amount of 0.05 μg, 0.1 μg, or 0.2 μg was treated with SDS, electrophoresed, and was subjected to detection with six antibodies of the present invention at 0.1 μg/mL.

T1 sequence (P68400 whole entry): as above

binding result [1]	binding result [2]	Binder
binds	binds	mouse anti-CK2α monoclonal antibody clone 10B2, mAb (10B2) (antibody, mouse IgG2b, V domains shown, As printed they appear to include a leader and the first constant region residues) VH: QVQLQQSGAELVRPGASVTLSCKASGYTFTDYQMHWVKQTPVHGLEWIGVIDPGTGGTAYNQKFKGKAILTADKSSNTAYMELRSLTSEDSAVYYCTGFVWGTGSPVTVSS VL: DIQMTQSPSSLSASLGERVSLTCRASQDIGNNLNWLQQEPDGTIKRLIYATSSLDSGVPKRFTGSRSGSDYSLTISSLESEDFVDYYCLQYAIFPYTFGGGTKLEIKR
binds	binds	mouse anti-CK2α monoclonal antibody clone 15C1, mAb (15C1) (antibody, mouse IgG2b, V domains shown, As printed they appear to include a leader and the first constant region residues) VH: QVQLQQSGAELVRPGASVTLSCKASGYTFTDFQMHWVKQTPVHGLEWIGVIDPGTGGTAYNQKFKDKAILTADKSSNTAYMELRSLTSEDSAVYYCTGFVWGTGTTVTVSS VL: DIQMTQSPSSLSASLGERVSLTCRASQDIGNNLNWLQQEPDGTIKRLIYATSSLDSGVPKRFTGSRSGSDYSLTISSLESEDFVDYYCLQYAIFPYTFGGGTKLEIKR
binds	binds	mouse anti-CK2α monoclonal antibody clone 16C2, mAb (16C2) (antibody, mouse IgG2b, V domains shown, As printed they appear to include a leader and the first constant region residues) VH: QVQLQQSGAELVRPGASVTLSCKASGYKFTDYQMHWVKQTPVHGLEWIGVLDPGTGGTAYNQKFRGKAILTADKSSSTAYMELRSLTSEDSAVYYCTGFVWGTGTTVTVSS VL: DIQMTQSPSSLSASLGERVSLTCRASQDIGSSLNWLQQEPDGTIKRLIYATSSLDSGVPKRFSGSRSGSDYSLTISSLESEDFVDYYCLQYAIFPYTFGGGTKLEIKR
